4 molecules from article PMC12151379 (2025) can be followed below.

Sequences and labels used below:
B1: liprin-α2_CC2N (residues 300–404) (domain or fragment)
chain: EVEQEAETARKDLIKTEEMNTKYQRDIREAMAQKEDMEERITTLEKRYLSAQRESTSIHDMNDKLENELANKEAILRQMEEKNRQLQERLELAEQKLQQTMRKAE
B4: RIM1_C2B (residues 1166–1334) (domain or fragment)
chain: GPAQLVGRQTLATPAMGDIQIGMEDKKGQLEVEVIRARSLTQKPGSKSTPAPYVKVYLLENGACIAKKKTRIARKTLDPLYQQSLVFDESPQGKVLQVIVWGDYGRMDHKCFMGVAQILLEELDLSSMVIGWYKLFPPSSLVDPTLAPLTRRASQSSLESSSGPPCIRS

What all share (experiment): ITC
Experiment [1] deals with T1, RIM1_C2B K1240E (Rattus norvegicus).
T1 chain: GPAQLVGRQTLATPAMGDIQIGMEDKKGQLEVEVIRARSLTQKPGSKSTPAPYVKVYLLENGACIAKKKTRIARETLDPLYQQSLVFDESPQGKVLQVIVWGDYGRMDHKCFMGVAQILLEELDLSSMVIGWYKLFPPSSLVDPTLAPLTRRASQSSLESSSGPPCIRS

The target in experiment [2] is B4.
The target in experiment [3] is T2, RIM1_C2B R1236E (Rattus norvegicus).
T2 chain: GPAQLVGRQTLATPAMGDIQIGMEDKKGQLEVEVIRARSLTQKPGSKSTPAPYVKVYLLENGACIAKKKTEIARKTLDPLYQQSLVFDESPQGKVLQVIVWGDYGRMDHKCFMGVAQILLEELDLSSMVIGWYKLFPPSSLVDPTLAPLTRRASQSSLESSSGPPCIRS

In experiment [4] the target is T3, RIM1_C2B L1245Q (Rattus norvegicus).
T3 chain: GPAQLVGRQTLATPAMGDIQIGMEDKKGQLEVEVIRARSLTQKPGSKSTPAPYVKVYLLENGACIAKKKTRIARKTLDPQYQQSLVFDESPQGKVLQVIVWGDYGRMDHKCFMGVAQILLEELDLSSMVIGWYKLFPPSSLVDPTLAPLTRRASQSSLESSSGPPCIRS

The target in experiment [5] is T4, liprin-α2_CC2N E380R (human, UniProt O75334 300-404, E380R).
T4 sequence: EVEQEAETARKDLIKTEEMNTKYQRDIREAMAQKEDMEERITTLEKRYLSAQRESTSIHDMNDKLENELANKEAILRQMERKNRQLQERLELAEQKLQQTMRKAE

In experiment [6] the target is T5, liprin-α2_CC2N A350S (human, UniProt O75334 300-404, A350S).
T5 sequence: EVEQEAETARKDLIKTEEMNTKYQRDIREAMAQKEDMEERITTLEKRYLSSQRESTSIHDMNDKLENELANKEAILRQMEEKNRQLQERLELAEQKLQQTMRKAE

Experiment [7] has as its target B1.
The target of experiment [8] is T6, liprin-α2_CC2 (residues 259–542) (human, UniProt O75334 259-542).
T6 chain: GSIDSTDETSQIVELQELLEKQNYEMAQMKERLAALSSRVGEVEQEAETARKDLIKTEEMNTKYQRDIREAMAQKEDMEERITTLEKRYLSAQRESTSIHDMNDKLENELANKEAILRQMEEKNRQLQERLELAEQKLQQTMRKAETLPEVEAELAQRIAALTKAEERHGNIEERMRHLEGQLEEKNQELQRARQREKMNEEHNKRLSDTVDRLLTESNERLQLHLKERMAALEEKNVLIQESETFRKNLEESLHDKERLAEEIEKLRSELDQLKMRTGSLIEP

As usually defined, the Kd is a measure of binding affinity in units of concentration. Low readings indicate a tighter complex, high ones a looser complex. Regarding B1, the Kd is 25 µM in experiment [1], 4 µM in experiment [2], 27 µM in experiment [3] and above 100 µM in experiment [4].

B2: liprin-α2_CC2N R383A (protein)
chain: EVEQEAETARKDLIKTEEMNTKYQRDIREAMAQKEDMEERITTLEKRYLSAQRESTSIHDMNDKLENELANKEAILRQMEEKNAQLQERLELAEQKLQQTMRKAE
In the case of B2, the affinity in experiment [2], expressed as Kd, was 24 µM.

B3: liprin-α2_CC2N E379R (protein)
chain: EVEQEAETARKDLIKTEEMNTKYQRDIREAMAQKEDMEERITTLEKRYLSAQRESTSIHDMNDKLENELANKEAILRQMREKNRQLQERLELAEQKLQQTMRKAE
In experiment [2], B3 returned a Kd of 23 µM.

With B4, the Kd in experiment [5] was 8.2 µM; in experiment [6] it was 5.7 µM; in experiment [7] it was 4 µM; in experiment [8], 5 µM.
